For this experiment, the target named is T1, Extended FH2 FMN1 (UniProt Q05860 961-1466).
T1 sequence (looked up): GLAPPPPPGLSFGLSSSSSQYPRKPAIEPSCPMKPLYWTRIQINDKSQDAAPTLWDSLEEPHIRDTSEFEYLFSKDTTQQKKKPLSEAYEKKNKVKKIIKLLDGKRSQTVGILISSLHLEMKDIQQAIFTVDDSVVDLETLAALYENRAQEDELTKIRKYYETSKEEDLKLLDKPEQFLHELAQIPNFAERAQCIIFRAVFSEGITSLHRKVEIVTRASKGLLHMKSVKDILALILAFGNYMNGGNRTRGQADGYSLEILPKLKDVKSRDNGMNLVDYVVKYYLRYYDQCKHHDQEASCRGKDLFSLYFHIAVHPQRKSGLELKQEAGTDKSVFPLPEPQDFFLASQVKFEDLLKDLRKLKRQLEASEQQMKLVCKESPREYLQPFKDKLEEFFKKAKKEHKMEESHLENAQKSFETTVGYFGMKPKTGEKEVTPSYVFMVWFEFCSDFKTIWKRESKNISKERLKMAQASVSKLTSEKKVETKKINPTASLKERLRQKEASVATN
The experiment is described as follows: SPR. (In general: SPR reads the build-up and loss of mass on a sensor chip optically.)

B1: N-terminal WW1-WW2 FNBP4 (domain or fragment, UniProt Q8N3X1 214-629, looked up)
chain: GIEMGDWQEVWDENTGCYYYWNTQTNEVTWELPQYLATQVQGLQHYQPSSVPGAETSFVVNTDIYSKEKTISVSSSKSGPVIAKREVKKEVNEGIQALSNSEEEKKGVAASLLAPLLPEGIKEEEERWRRKVICKEEPVSEVKETSTTVEEATTIVKPQEIMLDNIEDPSQEDLCSVVQSGESEEEEEQDTLELELVLERKKAELRALEEGDGSVSGSSPRSDISQPASQDGMRRLMSKRGKWKMFVRATSPESTSRSSSKTGRDTPENGETAIGAENSEKIDENSDKEMEVEESPEKIKVQTTPKVEEEQDLKFQIGELANTLTSKFEFLGINRQSISNFHVLLLQTETRIADWREGALNGNYLKRKLQDAAEQLKQYEINATPKGWSCHWDRDHRRYFYVNEQSGESQWEFPDG
One may read the Kd as the concentration at which binding is half-saturated. Read a low Kd as tighter binding. As a reminder, the koff is a measure of how fast the partners let go of each other. Read a high koff as a short-lived complex. What is called kon is the second-order rate constant of association. The molecule B1 had a dissociation constant (Kd) of 36.5 nM, a koff of 0.000803 s⁻¹ and a kon of 22500 M⁻¹ s⁻¹.

The record behind these values is publication doi:10.1101/2024.12.07.627365 (bioRxiv, 2024).
